Test results: the supplement of paper PMC9112550, “Optimization of the antimicrobial peptide Bac7 by deep mutational scanning” (BMC Biology, 2022)

Tested on: Escherichia coli TOP10
Assay: shrunken log2 fold change of peptide-encoding DNA abundance (4.5 h post-induction vs induction); higher = less antimicrobial activity (less host growth inhibition)
Details: time post-induction: 4.5 h; library: site-saturation at positions 5, 18, 19, 20
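Also: peptides expressed intracellularly from a pBAD plasmid library in pooled LB shake-flask culture, induced with 0.3% L-arabinose, DNA abundance read by NGS, three biological replicates, DESeq2 with apeglm shrinkage.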

Sequence | shrunken log2 fold change
RRIRKRPPRLPRPRPRPWNWPRP | -0.00973
RRIRKRPPRLPRPRPRPWPCPRP | 0.161
RRIRKRPPRLPRPRPRPWPMPRP | 0.915
RRIRKRPPRLPRPRPRPWRMPRP | 0.0773
RRIRKRPPRLPRPRPRPWRRPRP | 0.0332
RRIRKRPPRLPRPRPRPWSKPRP | 0.00888
RRIRKRPPRLPRPRPRPWTMPRP | 0.00233
RRIRKRPPRLPRPRPRPWTNPRP | -0.0144
RRIRKRPPRLPRPRPRPWTRPRP | -0.0844
RRIRKRPPRLPRPRPRPWTSPRP | -0.113
RRIRKRPPRLPRPRPRPWVCPRP | 0.324
RRIRKRPPRLPRPRPRPWVDPRP | 0.572
RRIRKRPPRLPRPRPRPWWLPRP | 0.252
RRIRKRPPRLPRPRPRPWYDPRP | -0.153
RRIRKRPPRLPRPRPRPYAFPRP | -0.111
RRIRKRPPRLPRPRPRPYCCPRP | -0.237
RRIRKRPPRLPRPRPRPYCHPRP | -0.469
RRIRKRPPRLPRPRPRPYCMPRP | -0.461
RRIRKRPPRLPRPRPRPYDCPRP | -0.171
RRIRKRPPRLPRPRPRPYEYPRP | 0.0169
RRIRKRPPRLPRPRPRPYGGPRP | 0.0335
RRIRKRPPRLPRPRPRPYIEPRP | -0.127
RRIRKRPPRLPRPRPRPYKKPRP | -0.201
RRIRKRPPRLPRPRPRPYLCPRP | -0.0593
RRIRKRPPRLPRPRPRPYPVPRP | -0.801

Sequence | shrunken log2 fold change
RRIRKRPPRLPRPRPRPYQPPRP | -0.191
RRIRKRPPRLPRPRPRPYRFPRP | -0.244
RRIRKRPPRLPRPRPRPYVIPRP | -0.112
RRIRKRPPRLPRPRPRPYWPPRP | -0.000778
RRIRLRPPRLPRPRPRPAAKPRP | 0.602
RRIRLRPPRLPRPRPRPADFPRP | -0.0534
RRIRLRPPRLPRPRPRPADHPRP | -0.53
RRIRLRPPRLPRPRPRPADKPRP | 0.122
RRIRLRPPRLPRPRPRPAENPRP | 0.0583
RRIRLRPPRLPRPRPRPAFYPRP | 0.903
RRIRLRPPRLPRPRPRPAHDPRP | 0.189
RRIRLRPPRLPRPRPRPAHRPRP | 0.278
RRIRLRPPRLPRPRPRPAKDPRP | -0.136
RRIRLRPPRLPRPRPRPAKVPRP | -0.0169
RRIRLRPPRLPRPRPRPALYPRP | 0.193
RRIRLRPPRLPRPRPRPAMDPRP | 0.113
RRIRLRPPRLPRPRPRPAMQPRP | 0.0214
RRIRLRPPRLPRPRPRPANEPRP | 0.0458
RRIRLRPPRLPRPRPRPANIPRP | -0.501
RRIRLRPPRLPRPRPRPANLPRP | -0.00914
RRIRLRPPRLPRPRPRPATHPRP | 0.253
RRIRLRPPRLPRPRPRPATRPRP | 0.145
RRIRLRPPRLPRPRPRPAVAPRP | 0.552
RRIRLRPPRLPRPRPRPAWCPRP | 0.094
RRIRLRPPRLPRPRPRPAWKPRP | 0.151

Sequence | shrunken log2 fold change
RRIRLRPPRLPRPRPRPCDEPRP | -0.0824
RRIRLRPPRLPRPRPRPCDVPRP | -0.255
RRIRLRPPRLPRPRPRPCFSPRP | -0.112
RRIRLRPPRLPRPRPRPCGDPRP | -0.00813
RRIRLRPPRLPRPRPRPCHPPRP | 0.159
RRIRLRPPRLPRPRPRPCIAPRP | -0.185
RRIRLRPPRLPRPRPRPCLQPRP | -0.207
RRIRLRPPRLPRPRPRPCMQPRP | -0.154
RRIRLRPPRLPRPRPRPCNNPRP | -0.0778
RRIRLRPPRLPRPRPRPCPCPRP | -0.0536
RRIRLRPPRLPRPRPRPCQNPRP | -0.0404
RRIRLRPPRLPRPRPRPCQWPRP | -0.0969
RRIRLRPPRLPRPRPRPCRRPRP | -0.0846
RRIRLRPPRLPRPRPRPCSDPRP | 0.0181
RRIRLRPPRLPRPRPRPCSNPRP | -0.47
RRIRLRPPRLPRPRPRPCSPPRP | -0.0527
RRIRLRPPRLPRPRPRPCSWPRP | -0.0168
RRIRLRPPRLPRPRPRPCVPPRP | -0.208
RRIRLRPPRLPRPRPRPCYAPRP | -0.0464
RRIRLRPPRLPRPRPRPCYVPRP | -1.08
RRIRLRPPRLPRPRPRPDAEPRP | 0.326
RRIRLRPPRLPRPRPRPDCCPRP | 0.0778
RRIRLRPPRLPRPRPRPDCQPRP | 0.153
RRIRLRPPRLPRPRPRPDDAPRP | -0.115
RRIRLRPPRLPRPRPRPDDPPRP | 0.00153
